Two molecules from article PMC9499541, “Ait1 regulates TORC1 signaling and localization in budding yeast” (eLife, 2022) can be followed below.

First the molecules themselves.
B1: Gtr1-myc (natural protein, S. cerevisiae, UniProt Q00582 1-310, looked up)
chain: MSSNNRKKLLLMGRSGSGKSSMRSIIFSNYSAFDTRRLGATIDVEHSHLRFLGNMTLNLWDCGGQDVFMENYFTKQKDHIFQMVQVLIHVFDVESTEVLKDIEIFAKALKQLRKYSPDAKIFVLLHKMDLVQLDKREELFQIMMKNLSETSSEFGFPNLIGFPTSIWDESLYKAWSQIVCSLIPNMSNHQSNLKKFKEIMNALEIILFERTTFLVICSSNGENSNENHDSSDNNNVLLDPKRFEKISNIMKNFKQSCTKLKSGFKTLILNNNIYVSELSSNMVCFIVLKDMNIPQELVLENIKKAKEFFQ
notes: Gtr1, small GTPase (homolog of RagA/B), S. cerevisiae; also called Gtr1/2; source: S. cerevisiae (W303) strain carrying Gtr1-myc, in lysate
B2: GFP-Ait1 (natural protein, S. cerevisiae, UniProt Q12301 1-547, looked up)
chain: MVRLNHAASYFMPIFCSTRPHIVILSALFSISLFSLFYASSELLLHQYDDPLMFKPNSQDYFRTFLLGLFSPFLYYFLKTFLFNINQRFLILNLIVDFPINDVFMLLILIGLAYPQVQDHEGGTIKHKECSWHIIPRQAYIFGISWALGEFTICIIGNLFNYQEIADPNINSGFTHQESANTYCNNNDMSHNDDCGCSTEYRPNVVDRSDITLSKCIEVRNDSSSISNNVYSSEYHPIKPLRSSSSTYGSIRQQPHENKKQLHVPDNSQDDTIIMMNPIDNSLKLTTLDTGDLSFPIDEEQPILKKSFGYTWAVPNENTQNTTKSFTPIKRFIAFSTAYQLVTGLLLMILVVGSNIMLTIGESLILSMYFVYVRGHEGLFTPVVNYFGSRTISNFILCVIIPFISLNFLINTSIYLRRELDDWFNNSQGEFEDDDENTISKRVATNQEYQHPLSANYISMDSPDVINSSPGHFGMNSGQLLGNTTLYYGSLNGDDDDMTNDSALLRFCKKLVKNWRALARNDSFVLGVMVSWSLLVFVTGILSTVYI
notes: Ait1 (Ydl180w), GPCR-like protein of the vacuolar membrane, S. cerevisiae; The strain list is in Supplementary file 3; source: S. cerevisiae (W303) strain carrying GFP-Ait1, in lysate; not shown: GFP, N-terminal, kept

The test “GFP-Ait1” concerns the target B2. In words: co-IP; GFP-Ait1 or GFP-Ait1C3v2 immunopurified on anti-GFP beads in nonionic detergent (digitonin) without a crosslinker; blot with anti-Myc and anti-GFP; log phase, 30 min amino acid starvation, long-term amino acid and glucose starvation. To be noted: partners not purified.
In the next test the target is T1, Kog1-FLAG (S. cerevisiae, UniProt P38873 1-1557).
T1 construct: Kog1 (Raptor homolog), subunit of TORC1, S. cerevisiae; Bait on anti-FLAG beads; The strain list is in Supplementary file 3; also called Kog1/Raptor; TORC1 subunit Kog1; source: S. cerevisiae (W303) strain carrying Kog1-FLAG, in lysate
In words: co-IP; Kog1-FLAG immunopurified on anti-FLAG beads after DSP crosslinking; blot with anti-GFP and anti-FLAG; with and without amino acids, long-term amino acid and glucose starvation, also with 4x protease inhibitors. To be noted: partners not purified.

T1 sequence (P38873 whole entry): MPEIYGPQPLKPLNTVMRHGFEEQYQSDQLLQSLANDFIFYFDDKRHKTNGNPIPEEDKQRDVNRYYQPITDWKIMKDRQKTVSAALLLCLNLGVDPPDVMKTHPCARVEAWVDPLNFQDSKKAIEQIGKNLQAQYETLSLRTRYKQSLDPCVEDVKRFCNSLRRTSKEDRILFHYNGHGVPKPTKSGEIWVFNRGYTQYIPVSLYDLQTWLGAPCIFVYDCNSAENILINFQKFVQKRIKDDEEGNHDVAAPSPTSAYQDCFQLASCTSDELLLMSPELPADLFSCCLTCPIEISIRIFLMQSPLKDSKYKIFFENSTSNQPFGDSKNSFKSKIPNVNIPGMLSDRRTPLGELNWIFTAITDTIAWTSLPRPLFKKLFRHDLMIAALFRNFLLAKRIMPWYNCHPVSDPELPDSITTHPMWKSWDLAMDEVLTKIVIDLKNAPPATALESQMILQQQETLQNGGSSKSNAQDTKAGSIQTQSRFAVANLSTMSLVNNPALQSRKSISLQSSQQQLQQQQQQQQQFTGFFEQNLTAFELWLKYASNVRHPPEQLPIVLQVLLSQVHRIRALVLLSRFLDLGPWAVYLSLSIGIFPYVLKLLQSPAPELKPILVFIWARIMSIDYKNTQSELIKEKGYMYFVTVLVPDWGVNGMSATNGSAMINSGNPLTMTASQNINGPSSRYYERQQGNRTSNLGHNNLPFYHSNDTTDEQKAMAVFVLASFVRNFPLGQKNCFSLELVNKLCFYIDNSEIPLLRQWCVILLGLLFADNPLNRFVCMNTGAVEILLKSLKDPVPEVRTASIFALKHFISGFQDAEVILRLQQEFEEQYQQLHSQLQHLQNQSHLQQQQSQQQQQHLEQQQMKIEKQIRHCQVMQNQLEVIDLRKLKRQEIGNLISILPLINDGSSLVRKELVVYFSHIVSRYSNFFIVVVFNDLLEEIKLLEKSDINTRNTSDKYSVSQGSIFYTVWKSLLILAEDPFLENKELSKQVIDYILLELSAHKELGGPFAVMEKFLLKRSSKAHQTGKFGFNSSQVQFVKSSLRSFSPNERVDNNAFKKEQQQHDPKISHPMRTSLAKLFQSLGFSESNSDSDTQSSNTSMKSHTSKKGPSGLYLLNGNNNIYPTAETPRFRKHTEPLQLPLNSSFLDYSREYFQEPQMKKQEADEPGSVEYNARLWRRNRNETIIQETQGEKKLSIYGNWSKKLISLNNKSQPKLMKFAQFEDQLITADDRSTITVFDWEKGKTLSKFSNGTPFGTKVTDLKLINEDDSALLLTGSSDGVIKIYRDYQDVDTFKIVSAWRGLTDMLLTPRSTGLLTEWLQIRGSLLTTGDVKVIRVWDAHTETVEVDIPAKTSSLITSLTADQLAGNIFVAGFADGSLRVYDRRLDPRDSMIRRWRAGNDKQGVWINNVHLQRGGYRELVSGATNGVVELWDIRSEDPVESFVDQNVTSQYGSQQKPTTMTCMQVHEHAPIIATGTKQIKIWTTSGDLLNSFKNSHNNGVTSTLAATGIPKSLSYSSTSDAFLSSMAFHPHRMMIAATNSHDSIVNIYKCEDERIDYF

Regarding B1, in the test with GFP-Ait1, the “amount copurified after long-term amino acid and glucose starvation, relative to log-phase growth” value is 60 % of the level found in log-phase growth.

As for B2, in the test with Kog1-FLAG, the “amount copurified after long-term amino acid and glucose starvation, relative to log-phase growth” value is 50 % of the level found in log-phase growth.
